Data taken from the DeepSol protein solubility set.

Assay: soluble on expression in E. coli; label from the status in PepcDB or PDB records
For “SIDKNFWQGKRVFVTGHTGFKGSWLSLWLTEMGAIVKGYALDAPTVPSLFEIVRLNDLMESHIGDIRDFEKLRSSIAEFKPEIVFHMAAQPLVRLSYEQPIKTYSTNVMGTVHLLETVKQVGNIKAVVNITSDKCYDNREWVWGYRENEPMGGYDPYSNSKGCAELVASAFRNSFFNPANYEQHGVGLASVRAGNVIGGGDWAKDRLIPDILRSFENNQQVIIRNPYSIRPWQHVLEPLSGYIVVAQRLYTEGAKFSEGWNFGPRDEDAKTVEFIVDKMVTLWGDDASWLLDGENHPHEAHYLKLDCSKANMQLGWHPRWGLTETLSRIVKWHKAWIRGEDMLICSKREISDYMSATTR”, the “soluble on expression in E. coli” value was “soluble”. In the case of “MTYDLSRLTQDLPHETSEPSPKSASTLSLPPGESDQNGNTSSHEGVTPPRRRCTISRSSSIDSISGETLISEYFSSDELDKLSTALSEVTF”, the “soluble on expression in E. coli” value was “not soluble”. With “MAPVLSKDVADIESILALNPRTQSHAALHSTLAKKLDKKHWKRNPDKNCFHCEKLENNFDDIKHTTLGERGALREAMRCLKCADAPCQKSCPTHLDIKSFITSISNKNYYGAAKMIFSDNPLGLTCGMVCPTSDLCVGGCNLYATEEGSINIGGLQQFASEVFKAMNIPQIRNPCLPSQEKMPEAYSAKIALLGAGPASISCASFLARLGYSDITIFEKQEYVGGLSTSEIPQFRLPYDVVNFEIELMKDLGVKIICGKSLSENEITLNTLKEEGYKAAFIGIGLPEPKTDDIFQGLTQDQGFYTSKDFLPLVAKSSKAGMCACHSPLPSIRGAVIVLGAGDTAFDCATSALRCGARRVFLVFRKGFVNIRAVPEEVELAKEEKCEFLPFLSPRKVIVKGGRIVAVQFVRTEQDETGKWNEDEDQIVHLKADVVISAFGSVLRDPKVKEALSPIKFNRWDLPEVDPETMQTSEPWVFAGGDIVGMANTTVESVNDGKQASWYIHKYIQAQYGASVSAKPELPLFYTPVDLVDISVEMAGLKFINPFGLASAAPTTSSSMIRRAFEAGWGFALTKTFSLDKDIVTNVSPRIVRGTTSGPMYGPGQSSFLNIELISEKTAAYWCQSVTELKADFPDNIVIASIMCSYNKNDWMELSRKAEASGADALELNLSAPHGMGERGMGLACGQDPELVRNICRWVRQAVQIPFFAKLTPNVTDIVSIARAAKEGGADGVTATNTVSGLMGLKADGTPWPAVGAGKRTTYGGVSGTAIRPIALRAVTTIARALPGFPILATGGIDSAESGLQFLHSGASVLQVCSAVQNQDFTVIQDYCTGLKALLYLKSIEELQGWDGQSPGTESHQKGKPVPRIAELMGKKLPNFGPYLEQRKKIIAEEKMRLKEQNAAFPPLERKPFIPKKPIPAIKDVIGKALQYLGTFGELSNIEQVVAVIDEEMCINCGKCYMTCNDSGYQAIQFDPETHLPTVTDTCTGCTLCLSVCPIIDCIRMVSRTTPYEPKRGLPLAVNPVC” the “soluble on expression in E. coli” value was “soluble”. In the case of “MAHHHHHHMERAHGAKDGGSKTLFVTVGSHQFDDLIKQIDTKDFHSFLRRAGFAKMSMQIGQGTYEPQLIYRCSGNGEESLLKRVKFFRYKKDLLKDFQKADLIVSHAGAGTTLEGLRMKKKMLIVVNDKLMGNHQLEFAEFLRSRNYLEVCECLGDLRAHVLRCLRTPAFAPFPAPRPEPFLRDLRALMDGAA”, the “soluble on expression in E. coli” value was “soluble”. With “SNAHKGTLYVVATPLGNLDDMTFRAVNTLRNAGAIACEDTRRTSILLKHFGIEGKRLVSYHSFNEERAVRQVIELLEEGSDVALVTDAGTPAISDPGYTMASAAHAAGLPVVPVPGA” the “soluble on expression in E. coli” value was “soluble”. In the case of “MGHHHHHHSHELEALSQDPRRYEEWKWFRCPTLLEVLEQFPSVALPAPLLLTQLPLLQPRYYSVSSAPSTHPGEIHLTVAVLAYRTQDGLGPLHYGVCSTWLSQLKPGDPVPCFIRGAPSFRLPPDPSLPCILVGPGTGIAPFRGFWQERLHDIESKGLQPTPMTLVFGCRCSQLDHLYRDEVQNAQQRGVFGRVLTAFSREPDNPKTYVQDILRTELAAEVHRVLCLERGHMFVCGDVTMATNVLQTVQRILATEGDMELDEAGDVIGVLRDQQRYHEDIFGLTLRTQEVTSRI”, the “soluble on expression in E. coli” value was “not soluble”. In the case of “MNKQRFVVIDVETTGNSPKKGDKIIQIAAVVIENGQITERFSKYINPNKSIPAFIEQLTGISNQMVENEQPFEAVAEEVFQLLDGAYFVAHNIHFDLGFVKYELHKAGFQLPDCEVLDTVELSRIVFPGFEGYKLTELSEELQLRHDQPHRADSDAEVTGLIFLEILEKLRQLPYPTLKQLRRLSQHFISDLTHLLDMFINENRHTEIPGYTRFSSFSVREPEAIDVRINEDENFSFEIESWEAGNEKALSELMPGYEKRDGQMMMMREVADAFANREHALIEAPPGIGKTIGYLIPAALFAKKSKKPVIISTYSTLLQQQILTKDLPIVQDLFPFPVTAAILKGQSHYLCLYKFEQVLHEEDDNYDAVLTKAQLLVWLTETNTGDVAELNLPSGGKLLWDRLAYDDDSYKRSRSEHVIGFYERAKQIAMRSDLVITNHSLLLTDEGSHKKRLPESGTFIIDEAHHFERAASEHLGKRATYIELHTKLSRIGTLKEQGLLKKMRQLFQRNSLPVDSFFELEEWLQHVQAESDAFFSSVHSFVKRRKPKEDLNRLVFKVNKESQDKSWSILTDGAERLCSMLTHLQQLFEAQSSLMEKHLKGMKSKTVFLADEYQRSMKGLQHYCQTLQKLFFGSDDDEAVWIEIDAKGAKNAVAIYAQPLEPGELLADQFFARKNSVVLTSATLTVEGSFQFMIERLGLSDFFPRTMRIESPFSYDERMQVMIPKEMKSIQDTGQPEFIQDTARYIELMAKEKQPKILVLFTSHDMLKKVHQELKHNMSASGIQLLAQGITGGSPGKLMKTFKTSNQAILLGTNHFWEGVDFPGDELTTVMIVRLPFRSPDHPLHAAKCELARKKGKNPFQTVSLPEAVLTFRQGIGRLLRSAGDKGTIIILDRRIKTAGYGRLFLDALPTTSVSEMTDSELEAY”, the “soluble on expression in E. coli” value was “not soluble”. In the case of “MGSDKIHHHHHHMVGENMDIFVSDYEKQYKEILTGFDPTTFSETWVENQQWQLDFYVEKTRNNQDVFDLLNHESSVYLDGQEFVVKQLKRGAVGKIVYSEVTATHIYFTMQDDYQYNAISGSKSAKDCLTHIFAADKQGFSFELIDKNKVLENITQENFGNGNLLKLVQEVLEDYKLVMLADNKRLTFIPSEDYGEHTENEIRYNKHTNEVDFDIDTLSLRTQIKGYGKVDSNGNNYFPPVTFTSPESAKWGVRIQEPLSDERYTTSSSMLRRLKLELQDYPATTGNISLKLKYECGKGDYVMFVYEPLGLLYEVQIVAYKKYIFTNKPPELTLSNNKKTMVSIMVQLAKAIKRGAK”, the “soluble on expression in E. coli” value was “not soluble”. With “GMTVRDENYFTEKYGLTRTHSDVLAAAKVVAPGRTLDLGCGNGRNSLYLAANGYDVTAWDKNPASMANLERIKAAEGLDNLQTDLVDLNTLTFDGEYDFILSTVVMMFLEAQTIPGLIANMQRCTKPGGYNLIVAAMDTPDFPCTVGFPFAFKEGELRRYYEGWDMLKYNEDVGELHRTDENGNRIKLRFATMLARKTA” the “soluble on expression in E. coli” value was “soluble”. In the case of “GSHNATSGHEDMPVERILEAELAVEPKTESYGDMNMENSTNDPVTNICHAADKQLFTLVEWAKRIPHFSDLTLEDQVILLRAGWNELLIASFSHRSVSVQDGILLATGLHVHRSSAHSAGVGSIFDRVLTELVSKMKDMQMDKSELGCLRAIVLFNPDAKGLSNPSEVETLREKVYATLEAYTKQKYPEQPGRFAKLLLRLPALRSIGLKCLEHLFFFKLIGDTPIDTFLMEMLETPLQIT”, the “soluble on expression in E. coli” value was “soluble”. With “MPAALIKDFLLTQGLKLPLDEVRAAYLTAQTVMDMGTASIDRSVLWRSDEGWKLADYLSCDNVREDALKRLFMALDSVFSRSTGVRSAAVYALMPSENQAFQLICLSRQGEVLENLWDLDEAAGKVSLACRSAQSGWMNVASDVRRWLDLGELSGERNHASAAQISIPVCTESGGVLGVVHVEFECAECAGTAAQVEWVALALALSEPLKLLLGMSAGKDGSEDV” the “soluble on expression in E. coli” value was “not soluble”. For “MAHHHHHHMGIVGEYEILETLGTGAFSKVKLVRHLPTNVYFVAKIIQKSNQQVETDVRLEISILRRLRHRNIVQLIEILESSNNYYIILEPVLGGDVCSLVLSQEGGLAEDFVANLFFQLVAGLRACHQNGVAHRDLKPENLLLTGEKVLKISDFGLSRLHKQSNFHAEAEEYAHTLTGTLAYVAPEVLDGNYDAFKADIWSIGCILYVMLTGQFPFGPTTDACELGERIKDGRVCEMPKSVSENARELTMWLLSRDPASRPSLDEVATHAFLRQHVPAKNIMALTRSRQAKILAPDPSEFSSAIPEEKQVANS”, the “soluble on expression in E. coli” value was “soluble”.
